From patent US20260224620A1 (published 2026) come the findings set out here.

Usually Kd stands for the free concentration of one partner at which half of the binding sites on the other are occupied at equilibrium, for simple one-to-one binding. Lower therefore signals higher affinity.

The target in the test is CD47 WT (YSD CD47) (UniProt Q08722 19-135). The experiment in a line: flow cytometry, yeast surface display. (In general: In flow cytometry, cells or beads pass a laser one at a time.)

B1: B6H12 (antibody, V domains shown)
VH: EVQLVESGGDLVKPGGSLKLSCAASGFTFSGYGMSWVRQTPDKRLEWVATITSGGTYTYYPDSVKGRFTISRDNAKNTLYLQIDSLKSEDTAIYFCARSLAGNAMDYWGQGTSVTVSS
VL: DIVMTQSPATLSVTPGDRVSLSCRASQTISDYLHWYQQKSHESPRLLIKFASQSISGIPSRFSGSGSGSDFTLSINSVEPEDVGVYYCQNGHGFPRTFGGGTKLEIK
As to B1, the Kd was about 0.33 nM.
